Ends that are not written are not given here.
How the values were obtained:
eGFPd-^CDD_(MlnB) [1] = biological target: T1, eGFPd-^CDD_(MlnB); assay: FRET or BRET; in vitro FRET with purified fusion proteins in PBS, plate reader, 37 °C; donor protein fixed at 1 × 10^-6 M, acceptor protein 0 to 20 × 10^-6 M; conditions: both partners purified
T1 chain: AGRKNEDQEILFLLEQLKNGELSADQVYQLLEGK

eGFPd-^CDD_(MlnB) [2] = biological target: T1, eGFPd-^CDD_(MlnB); assay: ITC; cell: 80 × 10^-6 M eGFPd-CDD_MlnB; syringe: 1.6 × 10^-3 M NDD_MlnC-mRFP, 20 injections of 2 µL; 20 mM Tris-HCl pH 7.9, 250 mM NaCl, 1 mM EDTA, 10% glycerol, 1 mM TCEP; 37 °C; single binding site model; conditions: both partners purified
eGFPd-^CDD_(MlnB) [3] = biological target: T1, eGFPd-^CDD_(MlnB); assay: FRET or BRET; KD-FRET: sensitized-emission (three-channel) FRET microscopy of single living E. coli BW25993 cells (UvrA/UvrB: uvrA uvrB double deletion strain), donor eGFPd fusion from pFF838, acceptor mRFP fusion from pBBR6k, M9 medium, 37 °C; corrections to step 6; FRET efficiency against binned acceptor concentration fitted to a quadratic binding equation; conditions: partners not purified
[4] = biological target: T2, ^CDD_(MlnD) labeled with eGFPd; assay: FRET or BRET; in vitro FRET with purified fusion proteins in PBS, plate reader, 37 °C; donor protein fixed at 1 × 10^-6 M, acceptor protein 0 to 20 × 10^-6 M; conditions: both partners purified
T2 chain: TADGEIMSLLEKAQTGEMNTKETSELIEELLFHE

[5] = biological target: T2, ^CDD_(MlnD) labeled with eGFPd; assay: FRET or BRET; KD-FRET: sensitized-emission (three-channel) FRET microscopy of single living E. coli BW25993 cells (UvrA/UvrB: uvrA uvrB double deletion strain), donor eGFPd fusion from pFF838, acceptor mRFP fusion from pBBR6k, M9 medium, 37 °C; corrections to step 6; FRET efficiency against binned acceptor concentration fitted to a quadratic binding equation; conditions: partners not purified
UvrA-eGFPd = biological target: T3, UvrA-eGFPd (E. coli, UniProt P0A698 1-940); assay: as above; conditions: partners not purified
T3 construct: UvrA, nucleotide excision repair protein of E. coli; source: E. coli BW25993 with double deletion of uvrA and uvrB (SY006), expressed from the donor vector, in living cells; not shown: eGFPd, C-terminal, kept
T3 sequence (looked up): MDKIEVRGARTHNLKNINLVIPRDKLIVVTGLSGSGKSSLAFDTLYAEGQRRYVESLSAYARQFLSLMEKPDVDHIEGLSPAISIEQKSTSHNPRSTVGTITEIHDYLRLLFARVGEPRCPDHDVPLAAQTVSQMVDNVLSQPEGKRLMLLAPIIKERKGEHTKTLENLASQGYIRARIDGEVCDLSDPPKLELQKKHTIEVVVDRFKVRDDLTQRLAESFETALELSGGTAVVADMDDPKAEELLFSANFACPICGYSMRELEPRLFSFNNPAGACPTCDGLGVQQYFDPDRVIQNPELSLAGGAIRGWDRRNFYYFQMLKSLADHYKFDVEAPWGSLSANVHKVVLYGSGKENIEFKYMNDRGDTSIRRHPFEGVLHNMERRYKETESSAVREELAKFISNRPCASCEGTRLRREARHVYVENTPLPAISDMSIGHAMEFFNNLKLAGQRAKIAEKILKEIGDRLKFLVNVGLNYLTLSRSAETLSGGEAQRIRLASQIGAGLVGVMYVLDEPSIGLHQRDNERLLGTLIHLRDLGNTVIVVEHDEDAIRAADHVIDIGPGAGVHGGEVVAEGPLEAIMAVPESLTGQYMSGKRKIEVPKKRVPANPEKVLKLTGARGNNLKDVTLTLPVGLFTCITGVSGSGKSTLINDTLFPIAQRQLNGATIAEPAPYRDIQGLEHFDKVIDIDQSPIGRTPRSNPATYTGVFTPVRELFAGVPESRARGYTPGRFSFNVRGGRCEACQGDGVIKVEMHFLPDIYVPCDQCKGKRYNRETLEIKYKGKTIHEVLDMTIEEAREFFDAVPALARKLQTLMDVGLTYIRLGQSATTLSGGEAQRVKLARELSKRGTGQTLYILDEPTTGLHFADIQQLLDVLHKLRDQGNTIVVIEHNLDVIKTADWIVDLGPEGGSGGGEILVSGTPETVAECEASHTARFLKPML

^CDD_(ElaJ) = biological target: T4, ^CDD_(ElaJ); assay: as above; conditions: partners not purified
T4 chain: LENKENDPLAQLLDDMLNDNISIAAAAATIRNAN

MQIKQILSLIEEQQMSPDAGLELIRTYRKEQMEKK (domain or fragment, also: fused to mRFP) [^NDD_(MlnC)-mRFP] showed a Kd (eGFPd-^CDD_(MlnB) [1]) of 5660 nM, a Kd (eGFPd-^CDD_(MlnB) [2]) of 6850 nM and a Kd (eGFPd-^CDD_(MlnB) [3]) of 2290 nM.

For MNEKTMQIEQIVKKVKECSLTPEEGLELIKSLGKT (domain or fragment, also: labeled with mRFP) [^NDD_(MlnE) labeled with mRFP], the Kd [4] was 1500 nM and the Kd [5] was 250 nM.

B1: UvrB-mRFP (natural protein, E. coli, UniProt P0A8F8 1-673, looked up)
chain: MSKPFKLNSAFKPSGDQPEAIRRLEEGLEDGLAHQTLLGVTGSGKTFTIANVIADLQRPTMVLAPNKTLAAQLYGEMKEFFPENAVEYFVSYYDYYQPEAYVPSSDTFIEKDASVNEHIEQMRLSATKAMLERRDVVVVASVSAIYGLGDPDLYLKMMLHLTVGMIIDQRAILRRLAELQYARNDQAFQRGTFRVRGEVIDIFPAESDDIALRVELFDEEVERLSLFDPLTGQIVSTIPRFTIYPKTHYVTPRERIVQAMEEIKEELAARRKVLLENNKLLEEQRLTQRTQFDLEMMNELGYCSGIENYSRFLSGRGPGEPPPTLFDYLPADGLLVVDESHVTIPQIGGMYRGDRARKETLVEYGFRLPSALDNRPLKFEEFEALAPQTIYVSATPGNYELEKSGGDVVDQVVRPTGLLDPIIEVRPVATQVDDLLSEIRQRAAINERVLVTTLTKRMAEDLTEYLEEHGERVRYLHSDIDTVERMEIIRDLRLGEFDVLVGINLLREGLDMPEVSLVAILDADKEGFLRSERSLIQTIGRAARNVNGKAILYGDKITPSMAKAIGETERRREKQQKYNEEHGITPQGLNKKVVDILALGQNIAKTKAKGRGKSRPIVEPDNVPMDMSPKALQQKIHELEGLMMQHAQNLEFEEAAQIRDQLHQLRELFIAAS
notes: UvrB, nucleotide excision repair protein of E. coli; source: E. coli BW25993 with double deletion of uvrA and uvrB (SY006), expressed from the acceptor vector, in living cells; not shown: mRFP, C-terminal, kept
B1 gave a Kd (UvrA-eGFPd) of 170 nM.

Work on MKDYIEHILEEIKHNRLSKQEGLEQIRQFRSKGNV (domain or fragment, not fully specified) [^NDD_(ElaK)] yielded a Kd (^CDD_(ElaJ)) of 1180 nM.
